Consider one molecule from article PMC13507320, “Synergistic effect of PIP2 and PIP3 on membrane-induced phase separation of integrin complexes” (Biophysical Journal, 2025).

Experiment [1] addresses T1, Atto643-labeled his6-β1 integrin cytoplasmic tail peptide (UniProt P05556 752-798, Atto643 label (position not given)).
T1 construct: integrin β1 cytoplasmic tail; Tethered by its his6 tag to DGS-NTA-Ni lipids of the supported lipid bilayer; also called β1 tails; his6-tagged integrin β1 tails; source: synthetic peptide (synthesized and purified by the MPIB Core Facility)
T1 peptide (looked up): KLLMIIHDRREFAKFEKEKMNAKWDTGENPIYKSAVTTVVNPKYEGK
The experiment in a line: FRAP of the tethered partner on supported lipid bilayers (slowdown of diffusion); his6-β1 tails tethered to DGS-NTA-Ni on 5% PIP3 supported lipid bilayer; 1 μM kindlin or 1 μM talin, 30-min incubation; HEPES buffer pH 7.4, 150 mM KCl, 2.5 μM ZnCl2; t1/2_fast against β1 tails alone. To be noted: both partners purified.

Experiment [2] concerns the target T1, Atto643-labeled his6-β1 integrin …. In words: FRAP of the tethered partner on supported lipid bilayers (slowdown of diffusion); his6-β1 tails tethered to DGS-NTA-Ni on 5% PIP2 supported lipid bilayer; 1 μM kindlin or 1 μM talin, 30-min incubation; HEPES buffer pH 7.4, 150 mM KCl, 2.5 μM ZnCl2; t1/2_fast against β1 tails alone. To be noted: both partners purified.

B1: Kindlin-2 (natural protein, UniProt Q96AC1 1-680, looked up)
chain: MALDGIRMPDGCYADGTWELSVHVTDLNRDVTLRVTGEVHIGGVMLKLVEKLDVKKDWSDHALWWEKKRTWLLKTHWTLDKYGIQADAKLQFTPQHKLLRLQLPNMKYVKVKVNFSDRVFKAVSDICKTFNIRHPEELSLLKKPRDPTKKKKKKLDDQSEDEALELEGPLITPGSGSIYSSPGLYSKTMTPTYDAHDGSPLSPTSAWFGDSALSEGNPGILAVSQPITSPEILAKMFKPQALLDKAKINQGWLDSSRSLMEQDVKENEALLLRFKYYSFFDLNPKYDAIRINQLYEQAKWAILLEEIECTEEEMMMFAALQYHINKLSIMTSENHLNNSDKEVDEVDAALSDLEITLEGGKTSTILGDITSIPELADYIKVFKPKKLTLKGYKQYWCTFKDTSISCYKSKEESSGTPAHQMNLRGCEVTPDVNISGQKFNIKLLIPVAEGMNEIWLRCDNEKQYAHWMAACRLASKGKTMADSSYNLEVQNILSFLKMQHLNPDPQLIPEQITTDITPECLVSPRYLKKYKNKQITARILEAHQNVAQMSLIEAKMRFIQAWQSLPEFGITHFIARFQGGKKEELIGIAYNRLIRMDASTGDAIKTWRFSNMKQWNVNWEIKMVTVEFADEVRLSFICTEVDCKVVHEFIGGYIFLSTRAKDQNESLDEEMFYKLTSGWV
notes: Kindlin-2; the species may be mouse there; source: E. coli (DE3) Rosetta 2, purified (Ni-NTA IMAC, SenP2 digest, size-exclusion chromatography); not shown: His-SUMO, N-terminal, cleaved
B1: the “fold slowdown of β1 tail diffusion against β1 tails alone” value in experiment [1] is 3.3 times; in experiment [2] it was 2.6 times.
